Experimental data from US20140274782A1, “AFFINITY REAGENTS AND METHODS FOR DETECTION, PURIFICATION, AND PROTEOMIC ANALYSIS OF METHYLATED PROTEINS” (The Board of Trustees of the Leland Stanford Junior …, priority 2013, published 2014).

T1: G9a and GLP (Homo sapiens, UniProt Q96KQ7+Q9H9B1)
T1 sequence (Q96KQ7 2-1210 limits assumed): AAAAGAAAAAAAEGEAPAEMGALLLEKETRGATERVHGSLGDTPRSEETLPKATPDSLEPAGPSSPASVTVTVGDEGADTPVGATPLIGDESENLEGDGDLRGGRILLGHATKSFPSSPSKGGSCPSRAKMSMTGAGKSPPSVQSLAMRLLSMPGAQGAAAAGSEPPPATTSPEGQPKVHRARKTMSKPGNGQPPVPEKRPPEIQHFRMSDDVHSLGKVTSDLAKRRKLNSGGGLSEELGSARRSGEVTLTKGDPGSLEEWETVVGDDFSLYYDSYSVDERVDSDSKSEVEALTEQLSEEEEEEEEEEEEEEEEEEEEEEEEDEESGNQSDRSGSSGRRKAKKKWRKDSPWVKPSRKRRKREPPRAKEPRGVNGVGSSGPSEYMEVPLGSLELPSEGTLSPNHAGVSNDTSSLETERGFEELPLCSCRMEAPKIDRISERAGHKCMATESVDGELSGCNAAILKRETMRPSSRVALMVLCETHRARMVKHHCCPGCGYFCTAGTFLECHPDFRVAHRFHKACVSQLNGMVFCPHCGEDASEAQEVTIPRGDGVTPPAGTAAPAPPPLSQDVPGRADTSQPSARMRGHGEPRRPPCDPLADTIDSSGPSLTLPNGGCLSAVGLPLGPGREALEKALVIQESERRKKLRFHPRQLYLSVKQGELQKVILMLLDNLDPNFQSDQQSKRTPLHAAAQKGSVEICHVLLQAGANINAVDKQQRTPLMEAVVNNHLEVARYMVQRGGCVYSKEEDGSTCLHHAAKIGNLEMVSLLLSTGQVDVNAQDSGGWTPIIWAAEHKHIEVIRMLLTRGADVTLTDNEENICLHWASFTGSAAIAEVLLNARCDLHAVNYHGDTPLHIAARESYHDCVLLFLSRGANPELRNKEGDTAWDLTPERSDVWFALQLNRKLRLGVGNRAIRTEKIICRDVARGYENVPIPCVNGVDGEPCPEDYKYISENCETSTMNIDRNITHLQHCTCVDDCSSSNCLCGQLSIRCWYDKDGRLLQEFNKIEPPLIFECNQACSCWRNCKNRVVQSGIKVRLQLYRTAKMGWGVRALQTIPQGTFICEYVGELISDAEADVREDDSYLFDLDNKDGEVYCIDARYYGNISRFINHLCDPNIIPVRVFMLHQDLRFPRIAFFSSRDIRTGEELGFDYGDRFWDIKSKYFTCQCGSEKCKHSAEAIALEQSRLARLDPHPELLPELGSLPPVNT
T1 sequence (Q9H9B1 2-1298 limits assumed): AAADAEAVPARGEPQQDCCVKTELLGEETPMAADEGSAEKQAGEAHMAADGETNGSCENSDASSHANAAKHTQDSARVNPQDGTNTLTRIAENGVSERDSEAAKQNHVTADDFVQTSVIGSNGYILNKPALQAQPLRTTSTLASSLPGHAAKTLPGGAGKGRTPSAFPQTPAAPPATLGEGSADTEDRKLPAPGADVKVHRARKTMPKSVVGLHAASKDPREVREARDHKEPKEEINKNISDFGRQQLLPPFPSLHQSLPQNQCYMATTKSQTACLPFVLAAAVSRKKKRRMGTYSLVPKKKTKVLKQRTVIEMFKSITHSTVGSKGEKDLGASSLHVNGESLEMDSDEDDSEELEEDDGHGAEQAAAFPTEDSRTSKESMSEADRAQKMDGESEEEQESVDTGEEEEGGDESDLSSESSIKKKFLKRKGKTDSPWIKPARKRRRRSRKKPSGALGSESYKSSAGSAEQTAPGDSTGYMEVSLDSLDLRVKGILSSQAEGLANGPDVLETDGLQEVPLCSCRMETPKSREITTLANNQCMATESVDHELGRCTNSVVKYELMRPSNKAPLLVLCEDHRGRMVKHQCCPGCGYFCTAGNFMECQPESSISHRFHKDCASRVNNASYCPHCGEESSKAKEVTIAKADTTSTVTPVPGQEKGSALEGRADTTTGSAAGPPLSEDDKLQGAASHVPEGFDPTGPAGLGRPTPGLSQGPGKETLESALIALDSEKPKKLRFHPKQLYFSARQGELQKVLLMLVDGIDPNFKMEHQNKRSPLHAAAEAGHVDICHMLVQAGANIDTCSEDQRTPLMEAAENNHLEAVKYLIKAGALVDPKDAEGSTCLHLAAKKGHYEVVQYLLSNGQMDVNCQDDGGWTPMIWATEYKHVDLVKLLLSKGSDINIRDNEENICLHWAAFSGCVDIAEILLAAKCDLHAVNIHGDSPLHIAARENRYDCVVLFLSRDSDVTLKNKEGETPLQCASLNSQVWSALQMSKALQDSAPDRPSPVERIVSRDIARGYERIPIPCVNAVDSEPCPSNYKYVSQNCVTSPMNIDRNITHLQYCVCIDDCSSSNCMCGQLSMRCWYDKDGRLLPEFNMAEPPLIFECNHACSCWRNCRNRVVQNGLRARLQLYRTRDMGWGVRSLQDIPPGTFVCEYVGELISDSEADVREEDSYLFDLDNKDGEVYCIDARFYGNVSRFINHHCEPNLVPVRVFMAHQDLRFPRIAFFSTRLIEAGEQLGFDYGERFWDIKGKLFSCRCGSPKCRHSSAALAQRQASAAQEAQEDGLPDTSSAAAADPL


How the values were obtained:
3×MBT domain of L3MBTL1 = assay: Triple SILAC pull-down, 3xMBT/3xMBTD355N ratio (cytoplasmic, nuclear and chromatin fractions of 293T cells); format: binding, human; conditions: SILAC ratio, pull-down 3xMBT vs 3xMBTD355N; for 3xMBT/D355N UNC Heavy: experiment with UNC0638 in heavy SILAC media; for 3xMBT/D355N UNC Light: experiment with UNC0638 in light SILAC media;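 on all read-outs here: proteins quantified with MaxQuant, requiring at least two unique peptides and quantification in both label directions, normalized to the mean of proteins from a digested loading control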
G9a and GLP = molecular target: T1, G9a and GLP; assay: Triple SILAC pull-down after UNC0638 treatment of 293T cells, DMSO/UNC0638 ratio of protein captured by 3×MBT; format: cell-based; parameters: cells were treated for 24 hours with UNC0638 at 2.5 μM or DMSO vehicle control; endogenous in cells; host or cells: HEK 293T; conditions: for Relative to UNC0638 UNC Heavy / Relative to UNC0638 UNC Light: SILAC ratio DMSO/UNC0638 of protein pulled down with 3xMBT; for Relative to UNC0638 UNC Heavy: UNC0638 in heavy SILAC media; for Relative to UNC0638 UNC Light: UNC0638 in light SILAC media; for Relative to UNC0638 Average: average of UNC Light and UNC Heavy experiments;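 on all read-outs here: mass spectrometry (Q-Exactive) SILAC quantitation, DMSO/UNC0638 ratio computed after subtracting 3×MBTD355N mutant pull-down background, only proteins with at least twofold 3×MBT over mutant signal considered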

Molecule | 3xMBT/D355N UNC Heavy (3×MBT domain of L3MBTL1) [log base 2] | 3xMBT/D355N UNC Light (3×MBT domain of L3MBTL1) [log base 2] | Relative to UNC0638 UNC Heavy (G9a and GLP) [log base 2] | Relative to UNC0638 UNC Light (G9a and GLP) [log base 2] | Relative to UNC0638 Average (G9a and GLP) [log base 2]
U2SURP (protein, UniProt O15042 2-1029, looked up) U2 snRNP-associated SURP …: ADKTPGGSQKASSKTRSSDVHSSGSSDAHMDASGPSDSDMPSRTRPKSPRKHNYRNESARESLCDSPHQNLSRPLLENKLKAFSIGKMSTAKRTLSKKEQEELKKKEDEKAAAEIYEEFLAAFEGSDGNKVKTFVRGGVVNAAKEEHETDEKRGKIYKPSSRFADQKNPPNQSSNERPPSLLVIETKKPPLKKGEKEKKKSNLELFKEELKQIQEERDERHKTKGRLSRFEPPQSDSDGQRRSMDAPSRRNRSSGVLDDYAPGSHDVGDPSTTNLYLGNINPQMNEEMLCQEFGRFGPLASVKIMWPRTDEERARERNCGFVAFMNRRDAERALKNLNGKMIMSFEMKLGWGKAVPIPPHPIYIPPSMMEHTLPPPPSGLPFNAQPRERLKNPNAPMLPPPKNKEDFEKTLSQAIVKVVIPTERNLLALIHRMIEFVVREGPMFEAMIMNREINNPMFRFLFENQTPAHVYYRWKLYSILQGDSPTKWRTEDFRMFKNGSFWRPPPLNPYLHGMSEEQETEAFVEEPSKKGALKEEQRDKLEEILRGLTPRKNDIGDAMVFCLNNAEAAEEIVDCITESLSILKTPLPKKIARLYLVSDVLYNSSAKVANASYYRKFFETKLCQIFSDLNATYRTIQGHLQSENFKQRVMTCFRAWEDWAIYPEPFLIKLQNIFLGLVNIIEEKETEDVPDDLDGAPIEEELDGAPLEDVDGIPIDATPIDDLDGVPIKSLDDDLDGVPLDATEDSKKNEPIFKVAPSKWEAVDESELEAQAVTTSKWELFDQHEESEEEENQNQEEESEDEEDTQSSKSEEHHLYSNPIKEEMTESKFSKYSEMSEEKRAKLREIELKVMKFQDELESGKRPKKPGQSFQEQVEHYRDKLLQREKEKELERERERDKKDKEKLESRSKDKKEKDECTPTRKERKRRHSTSPSPSRSSSGRRVKSPSPKSERSERSERSHKESSRSRSSHKDSPRDVSKKAKRSPSGSRTPKRSRRSRSRSPKKSGKKSRSQSRSPHRSHKKSKKNKH | 3.19 | 2.58 | 0.23 | 0.27 | 0.25
SRSF11 (protein, UniProt Q05519 2-484, looked up) Serine/arginine-rich splicing …: SNTTVVPSTAGPGPSGGPGGGGGGGGGGGGTEVIQVTNVSPSASSEQMRTLFGFLGKIDELRLFPPDDSPLPVSSRVCFVKFHDPDSAVVAQHLTNTVFVDRALIVVPYAEGVIPDEAKALSLLAPANAVAGLLPGGGLLPTPNPLTQIGAVPLAALGAPTLDPALAALGLPGANLNSQSLAADQLLKLMSTVDPKLNHVAAGLVSPSLKSDTSSKEIEEAMKRVREAQSLISAAIEPDKKEEKRRHSRSRSRSRRRRTPSSSRHRRSRSRSRRRSHSKSRSRRRSKSPRRRRSHSRERGRRSRSTSKTRDKKKEDKEKKRSKTPPKSYSTARRSRSASRERRRRRSRSGTRSPKKPRSPKRKLSRSPSPRRHKKEKKKDKDKERSRDERERSTSKKKKSKDKEKDRERKSESDKDVKQVTRDYDEEEQGYDSEKEKKEEKKPIETGSPKTKECSVEKGTGDSLRESKVNGDDHHEEDMDMSD | 2.45 | 2.22 | 0.15 | 0.34 | 0.24
SEC24A (protein, UniProt O95486 1-1093, looked up) Protein transport protein …: MSQPGIPASGGAPASLQAQNGAALASGSPYTNGPVQNALLSSQESVSQGYNFQLPGSYPHPIPAKTLNPVSGQSNYGGSQGSGQTLNRPPVASNPVTPSLHSGPAPRMPLPASQNPATTPMPSSSFLPEANLPPPLNWQYNYPSTASQTNHCPRASSQPTVSGNTSLTTNHQYVSSGYPSLQNSFIKSGPSVPPLVNPPLPTTFQPGAPHGPPPAGGPPPVRALTPLTSSYRDVPQPLFNSAVNQEGITSNTNNGSMVVHSSYDEIEGGGLLATPQLTNKNPKMSRSVGYSYPSLPPGYQNTTPPGATGVPPSSLNYPSGPQAFTQTPLGANHLTTSMSGLSLQPEGLRVVNLLQERNMLPSTPLKPPVPNLHEDIQKLNCNPELFRCTLTSIPQTQALLNKAKLPLGLLLHPFKDLVQLPVVTSSTIVRCRSCRTYINPFVSFLDQRRWKCNLCYRVNDVPEEFLYNPLTRVYGEPHRRPEVQNATIEFMAPSEYMLRPPQPPVYLFVFDVSHNAVETGYLNSVCQSLLDNLDLLPGNTRTKIGFITFDSTIHFYGLQESLSQPQMLIVSDIEDVFIPMPENLLVNLNESKELVQDLLKTLPQMFTKTLETQSALGPALQAAFKLMSPTGGRMSVFQTQLPTLGVGALKPREEPNHRSSAKDIHMTPSTDFYKKLALDCSGQQVAVDLFLLSGQYSDLASLGCISRYSAGSVYYYPSYHHQHNPVQVQKLQKELQRYLTRKIGFEAVMRIRCTKGLSIHTFHGNFFVRSTDLLSLPNVNPDAGYAVQMSVEESLTDTQLVSFQSALLYTSSKGERRIRVHTLCLPVVSTLNDVFLGADVQAISGLLANMAVDRSMTASLSDARDALVNAVIDSLSAYRSSVLSNQQPGLMVPFSLRLFPLFVLALLKQKSFQTGTNARLDERIFAMCQVKNQPLVYLMLTTHPSLYRVDNLSDEGALNISDRTIPQPPILQLSVEKLSRDGAFLMDAGSVLMLWVGKNCTQNFLSQVLGVQNYASIPQPMTDLPELDTPESARIIAFISWLREQRPFFPILYVIRDESPMKANFLQNMIEDRTESALSYYEFLLHIQQQVNK | 1.94 | 2.29 | 0.60 | −0.11 | 0.24
